Reference: publication PMC9288967

Molecular target: SARS-CoV-2 spike RBD (wild type) (SARS-CoV-2) (UniProt P0DTC2)
Test: cross-linking

mNb6(108FFY) (VHH)
kobs (apparent first-order constant of cross-linking): 0.244 h⁻¹

mNb6(108FSY) (VHH)
kobs (apparent first-order constant of cross-linking): 0.102 h⁻¹
